Measured values reported in patent US6423315.

Target: I-A^q molecule of MHC (mouse (DBA/1))
Assay: cell-based or functional assay

IL-2 U/ml, T-cell hybridoma 2qCII92.33, molar ratio 0:1 (no competitor; baseline in the row of CII 245-270 [s260, 261, 263]): 160 U/ml
IL-2 U/ml, T-cell hybridoma 2qCII92.33, molar ratio 0:1 (no competitor; baseline in the row of CII 245-270 [s266, 267, 269]): 160 U/ml
IL-2 U/ml, T-cell hybridoma qCII85.33, molar ratio 0:1 (no competitor; baseline in the row of CII 245-270 [s260, 261, 263]): 640 U/ml
IL-2 U/ml, T-cell hybridoma qCII85.33, molar ratio 0:1 (no competitor; baseline in the row of CII 245-270 [s266, 267, 269]): 640 U/ml
IL-2 U/ml, T-cell hybridoma qCII98.10, molar ratio 0:1 (no competitor; baseline in the row of CII 245-270 [s260, 261, 263]): 160 U/ml
IL-2 U/ml, T-cell hybridoma qCII98.10, molar ratio 0:1 (no competitor; baseline in the row of CII 245-270 [s266, 267, 269]): 160 U/ml
B1: CII 245-270 (peptide)
peptide: PTGPLGPKGQTGZLGIAGFKGZQGPK
